T1: ChroM1 DNA-binding domain recombinant protein (rP, residues 2333-2480) (Homo sapiens, UniProt Q3L8U1 SEQ:2333-2480)
T1 sequence: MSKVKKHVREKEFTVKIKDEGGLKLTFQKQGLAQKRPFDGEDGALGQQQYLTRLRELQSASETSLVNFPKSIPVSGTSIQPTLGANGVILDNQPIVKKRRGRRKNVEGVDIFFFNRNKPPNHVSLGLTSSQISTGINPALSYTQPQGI

B1: A/T-rich 32-mer oligonucleotide (dsDNA)
DNA 1: GATCCATATATATATATATATATATATATGCA
DNA 2: TGCATATATATATATATATATATATATGGATC
B2: BMP4 distal promoter PCR fragment (145 bp) (dsDNA)
DNA 1: GCTAAAGGAGCACAATGCCTGATGCTGCAGGAGAAACATTAGGTAACTATTTAATGGAGTTTTAATTTTCTGTTATTATTTTTAATAATTAATTGTGATTTTGACTATTTGGAAGCTACAGGTATATTTTGTCCTCCTTTTGGGG
DNA 2: CCCCAAAAGGAGGACAAAATATACCTGTAGCTTCCAAATAGTCAAAATCACAATTAATTATTAAAAATAATAACAGAAAATTAAAACTCCATTAAATAGTTACCTAATGTTTCTCCTGCAGCATCAGGCATTGTGCTCCTTTAGC

Key:
[1] = target: T1, ChroM1 DNA-binding domain recombinant …; test: EMSA; 1-3 ug rP; binding increases with protein; abolished by 100x cold oligo; 26 mM Hepes pH 7.9, 2 mM MgCl2, 40 mM KCl, RT; strandedness of probe not stated; settings: label: 32P
Experimental: Electrophoretic mobility shift assay (EMSA): EMSA was performed between recombinant protein (rP) containing the DNA binding domain (residues 2333-2480 from sequence of ChroM1) and ³²P-labeled 32-mer oligonucleotide containing 24 A·T nucleotides, […] (SEQ ID NO:14). 1-3 μg of rP and 100,000 cpm of ³²P-labeled oligonucleotides were used for the binding reaction in the presence or absence of 100 fold excess cold oligonucleotide. The reaction was carried out in 20 μl of binding buffer (26 mM Hepes, pH 7.9, 2 mM MgCl₂, 40 mM KC1, 1 mM dithiothreitol and 0.25% BSA). The samples were incubated for 15 min at room temperature prior to loading in 5% native polyacrylamide gel in 0.25 Tris borate-EDTA (TBE). The gel was run for 40 min at RT and in TBE buffer. The gels were then dried and autoradiographed.

[2] = target: T1, ChroM1 DNA-binding domain recombinant …; test: EMSA; binding reduced by distamycin A

Row | Binder | binding result [1] | binding result [2]
1 | B1 | binds | 
2 | B2 |  | binds
